In US20230119066A1:

Legend:
[1] = molecular target: mouse C-C Motif Chemokine Receptor 8 (mCCR8) (mouse) (UniProt P56484); assay: cell-based or functional assay
[2] = molecular target: mouse C-C Motif Chemokine Receptor 8 (mCCR8) (mouse) (UniProt P56484); assay: flow cytometry on mouse thymic CD4+ cells
[3] = molecular target: mouse C-C Motif Chemokine Receptor 8 (mCCR8) (mouse) (UniProt P56484); assay: flow cytometry on mCCR8-expressing CHO cells
[4] = molecular target: mouse C-C Motif Chemokine Receptor 8 (mCCR8) (mouse) (UniProt P56484); assay: flow cytometry on activated mouse splenic CD4+ cells

mouse C-C Motif Chemokine Receptor 8 (mCCR8) (mouse), sequence (P56484 whole entry): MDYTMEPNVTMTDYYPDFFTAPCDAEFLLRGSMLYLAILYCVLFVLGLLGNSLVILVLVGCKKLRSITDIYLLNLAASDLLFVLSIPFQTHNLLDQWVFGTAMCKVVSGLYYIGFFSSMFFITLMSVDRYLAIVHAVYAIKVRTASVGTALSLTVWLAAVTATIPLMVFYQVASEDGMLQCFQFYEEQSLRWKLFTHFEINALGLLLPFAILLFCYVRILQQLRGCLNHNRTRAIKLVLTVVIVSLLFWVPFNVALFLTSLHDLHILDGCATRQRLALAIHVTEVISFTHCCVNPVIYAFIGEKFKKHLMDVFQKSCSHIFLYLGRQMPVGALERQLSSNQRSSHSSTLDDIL

EC50, crosslinking of mouse FcgRIV+ luciferase reporter effector cells [1]: 6.34 nM | IC50, blockade of Ca flux on mCCR8-expressing CHO cells [1]: 19.3 nM | EC50 [2]: 4 nM | EC50 [3]: 6.44 nM | EC50 [4]: 6.16 nM
Substance: anti-CCR8-mIgG2a, mouse IgG2a isotype of rat anti-mCCR8 mAb Clone SA214G2 (BioLegend) (antibody)
